The text below walks through data of paper PMC8359929.

Substrate in the series: N[C@@H](C(=O)O)[C@@H](O)[C@H](O)[C@H](O)COP(=O)(O)O
As to the kind of experiment: purified protein. To be noted: 0.1 M triethanolamine-HCl pH 8.0, 37 °C, 0.2 mM NADH. The class given is biochemical, Salmonella enterica.

B1: D-glucosaminate-6-phosphate ammonia-lyase (DGL), native (Salmonella enterica subsp. enterica serovar Typhimurium str. 14028S) (protein)
chain: MTPNIYQQLGLKKVINACGKMTILGVSSVAPEVMQATARAASAFVEIDALVEKTGELVSRYTGAEDSYITSCASAGIAIAVAAAITHGDRARVALMPDSSGMANEVVMLRGHNVDYGAPVTSAIRLGGGRIVEVGSSNLATRWQLESAINEKTAALLYVKSHHCVQKGMLSIDDFVQVAQANHLPLIVDAAAEEDLRGWVASGADMVIYSGAKAFNAPTSGFITGRKTWIAACKAQHQGIARAMKIGKENMVGLVYALENYHQGQTTVTAAQLQPVAEAISAIHGLYADIEQDEAGRAIWRIRVRVNASELGLNAQDVEAQLRGGEIAIYARKYQLHQGVFSLDPRTVAEGEMALIVARLREIAEHAAD
Turning to B1, the Michaelis-Menten constant (Km) (as a rule, the concentration of substrate that gives half-maximal velocity) was found to be 139 ± 26 µM; the turnover number (kcat) (in general, the number of substrate molecules converted per active site and unit of time at saturation) worked out at 27.4 ± 1.4 s⁻¹; the kcat/Km (as a rule, the second-order rate constant that governs catalysis at low substrate concentration) is 197000 ± 31000 M⁻¹ s⁻¹.
